The text below walks through data of article PMC12274814, “ATPase-dependent duplex nucleic acid unwinding by SARS-CoV-2 nsP13 relies on facile binding and translocation along single-stranded nucleic acid”.

Conditions in all cases: protein: recombinant; chain copies: 2; single strand 25 nt
The target of data set [1] is T1, nsP13 helicase (SARS-CoV-2, UniProt P0DTD1 5325-5925). As to the kind of experiment: competition, 500 nM ssDNA-F, 30 nM nsP13; 3 mM ATPgS, 5 mM Mg2+; K1/2 of TrapDNA.
For data set [2], the target named is T1, nsP13 helicase. In words: competition, 500 nM ssDNA-F, 30 nM nsP13.
The target of data set [3] is T1, nsP13 helicase. In words: competition, 500 nM ssDNA-F, 30 nM nsP13; 3 mM ATP, 5 mM Mg2+; K1/2 of TrapDNA.

As for TCTAATGTAGTATAGTAATCCGCTC (ssDNA) [TrapDNA], the IC50 stood at 3100 nM with nsP13 helicase [1], 460 nM with nsP13 helicase [2] and 950 nM with nsP13 helicase [3].
